Tested on: MS2 coat protein
Experiment: apparent KD of MS2 coat protein; designed switch direction (-1 OFF switch, 1 ON switch): -1; higher = weaker reporter binding
Method in brief: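 Designed RNA switches were transcribed on Illumina chips by stalled E. coli RNA polymerase and titrated with SNAP-549-labelled MS2 coat protein from 0.7 or 1.5 nM, doubling to 3 µM. Step length ran from 0.8–1.5 h at the lowest concentration to 10–20 min at the highest. The apparent KD is the median over clusters for each design, from curve-fitted normalised cluster fluorescence.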

[1] = Eterna round: R95, input ligand: microRNA oligo, concentration not stated
[2] = Eterna round: R95, input ligand: FMN 200 uM
[3] = Eterna round: R95, input ligand: none
[4] = input ligand: microRNA oligo, concentration not stated

Sequence	apparent KD of MS2 coat protein (input ligand: FMN 200 uM) [nM]	apparent KD of MS2 coat protein (input ligand: none) [nM]	apparent KD of MS2 coat protein [1] [nM]	apparent KD of MS2 coat protein [2] [nM]	apparent KD of MS2 coat protein [3] [nM]	apparent KD of MS2 coat protein [4] [nM]
GAGUUAGCGUGUGGCACAUACAUGAGGAUCACCCAUGUUAGCUUAUAUAUUGCUCGUCUUAUAACAACACUUAACUG [Mod JX-Electric-eye5] (Eterna round: R97, puzzle: Sensor, turn-off variant 1)	22.5	23.9	–	–	–	–
GAUACACAUGAGGAUCACCCAUGUGAGGAUAUGCGUACGUUGUCCGUAGGCGACGUGCGCAGAAGGCGCAAGGU [Mat - Mod of JL D96] (puzzle: Exclusion 1)	–	–	55	–	–	–
GAUACCUAUGUAAGGAUAUAUAAAGAGAGCCGCCUGUAGAAGGUACAUGAGGAUCACCCAUGUUGGGAGACCGA [Eternabot (L1) Solution 17] (Eterna round: R97, puzzle: Brourd's mod of Exclusion 4)	1160	1390	–	–	–	–
GAUCAACAUGAGGAUCACCCAUGUGAGGAUAUGUAUCAUAGAUCUUCGGAUCUAUGAUACAGAAGGCAUGUAGG [Ex1-3: 100] (puzzle: Exclusion 1)	–	–	74.2	–	–	–
GAUCAGAUAGGAUAUACAGGCCCGUCUUUAUAUUGAUCCCGACAUGAGGAUCACCCAUGUAGAAGGAUCAGAUC [Mod 28 - Jieux - Exclusion 2] (Eterna round: R97, puzzle: Exclusion 2)	23.3	17.5	–	–	–	–
GAUCAUGCAGGAUAUACAGUUUCCAUGAAAACAUGGAACUCACAUGAGGAUCACCCAUGUAGAAGGGCAUGAUC [Omei Ex2 A26] (Eterna round: R97, puzzle: Exclusion 2)	25.9	16.2	–	–	–	–
GAUCAUGCAGGAUAUACAGUUUCCAUGAAAACAUGGUCCUCACAUGAGGAUCACCCAUGUAGAAGGGCAUGAUC [Omei Ex2 A28] (Eterna round: R97, puzzle: Exclusion 2)	151	1490	–	–	–	–
GAUCCACAUGAGGAUCACCCAUGUGAGGAUAUGAUACUAUGUACUUCGGUACAUAGUAUCAGAAGGCACAUUGA [Ex1-3: 45] (puzzle: Exclusion 1)	–	–	136	–	–	–
GAUCCUUCUGUUAGGAUAUGCUUUGGGCUUCCGCAGCAGAAGGAACAUGAGGAUCACCCAUGUCAAAUAAAAUC [salish99_bmex4_r4_501] (Eterna round: R97, puzzle: Brourd's mod of Exclusion 4)	25.5	27.1	–	–	–	–
GAUCCUUCUGUUAGGAUAUGCUUUGGGCUUCCGCAGCAGAAGGAACAUGAGGAUCACCCAUGUCCAAUGCCAUC [salish99_bmex4_r4_505] (Eterna round: R97, puzzle: Brourd's mod of Exclusion 4)	46.1	39.1	–	–	–	–
GAUCGACAUGAGGAUCACCCAUGUCAGGAUAUGCAACGGACAAAACGAUACGUCAUAGGUAGAAGGGACUGUCU [Eternabot (Original) Solution 2] (Eterna round: R97, puzzle: Exclusion 1)	18.4	17.7	–	–	–	–
GAUGAGAGAGGAUAUACAUGAGGAUCACCCAUGUAAUUUUCGGACAUGGAAGCCUGAUGUAGAAGGCUCGCAUG [Usmaercele] (puzzle: Exclusion 3)	–	–	76.3	–	–	–
GAUGAGGUAGGAUAUACGAGAAGAUAGGGUAGAUAUAUAACACAUGAGGAUCACCCAUGUAGAAGGACCAGUAG [Mat - Exclusion 2 - Mod of my Tesla design - D71] (puzzle: Exclusion 2)	–	–	36.4	65.1	31.7	–
GAUGGCUUAGGAUAUACAUAGAAGAAUUGAACUUGGAUUAUACAUGAGGAUCACCCAUGUAGAAGGAGGUCAUC [ExGluten 4 - Jieux - Exclusion 2] (Eterna round: R97, puzzle: Exclusion 2)	53	29.1	–	–	–	–
GAUGGUCGAGGAUAUGCACCAGGGUCGACCUACUAGCGAAGACAUGAGGAUCACCCAUGUAGAAGGUGGCGGUU [Eternabot (L2) Solution 75] (Eterna round: R97, puzzle: Exclusion 2)	73.9	82.4	–	–	–	–
GAUUAUGCGAGCUUUAGGGACAUGAGGAUCACCCAUGUUCGUCUUAUUAGUCUGAGUACACUGACAUACCUAAAUCU [JMF 62] (puzzle: Sensor v3, turn-off variant 1)	–	–	14.8	14.2	13.3	–
GAUUAUGCGAGCUUUAGGGACAUGAGGAUCACCCAUGUUCGUCUUAUUGAUCUGGAUGCGCUAACAUACCUAAAUCU [JMF 45] (puzzle: Sensor v3, turn-off variant 1)	–	–	71.1	65	62.9	–

Sequence	apparent KD of MS2 coat protein (input ligand: FMN 200 uM) [nM]	apparent KD of MS2 coat protein (input ligand: none) [nM]	apparent KD of MS2 coat protein [1] [nM]	apparent KD of MS2 coat protein [2] [nM]	apparent KD of MS2 coat protein [3] [nM]	apparent KD of MS2 coat protein [4] [nM]
GAUUAUGCGAGCUUUAGGGACAUGAGGAUCACCCAUGUUCGUCUUAUUGAUCUGGGUACGCUAACAUACCUAAAUCU [JMF 42] (puzzle: Sensor v3, turn-off variant 1)	–	–	89.2	82.2	96.7	–
GAUUAUGCGAGCUUUAGGGACAUGAGGAUCACCCAUGUUCGUCUUAUUGGUCUAAAUGCACUGACAUACCUAAAUCU [JMF 74] (puzzle: Sensor v3, turn-off variant 1)	–	–	19.8	14.9	16.7	–
GAUUAUGCGAGCUUUAGGGACAUGAGGAUCACCCAUGUUCGUCUUAUUGGUCUAGAUACACUAACAUACCUAAAUCU [JMF 12] (puzzle: Sensor v3, turn-off variant 1)	–	–	21.4	15.2	17.4	–
GAUUAUGCGAGCUUUAGGGACAUGAGGAUCACCCAUGUUCGUCUUAUUGGUCUGGGUACACUGACAUACCUAAAUCU [JMF 72] (puzzle: Sensor v3, turn-off variant 1)	–	–	42.2	33.9	32.4	–
GAUUCAUAUGACUUUCUAUACAUGAGGAUCACCCAUGUUUGUUUUUUUUGUUUUUCGCUUUUUAGUCGUCUUAUUAU [Gravy 3] (Eterna round: R97, puzzle: Sensor, turn-off variant 1)	19.6	19	–	–	–	–
GAUUGACAUGAGGAUCACCCAUGUGAGGAUAUCGGCCGGACCUUGUUAGCUUCCAGCGCGAGAAGGCGCAUAGG [Exclusion 1 V36] (puzzle: Exclusion 1)	–	–	28.6	58.9	43.4	–
GAUUGACAUGAGGAUCACCCAUGUGAGGAUAUCGGCUGGACCGUGUUGGCUUGGGUUUCGAGAAGGCGCAUAGG [Exclusion 1 V46] (puzzle: Exclusion 1)	–	–	88.2	70.5	74.6	–
GCAAGCUUAAUCACUAUGAACAUGAGGAUCACCCAUGUAUAAGGUAUUACUUUUGGGCCCUUUAUUACUCGUCUUAU [JR_STOV1_Sub031] (Eterna round: R97, puzzle: Sensor, turn-off variant 1)	51.9	54.4	–	–	–	–
GCACGAAGUGUAGGAUAUCUGUGCGAUUAGCUCAGAGAAGGACACAUGAGGAUCACCCAUGUGUUCCACGGAAACGAAACGUGC [Eli exng1 - 053] (Eterna round: R96, puzzle: Exclusion NG 1)	9.14	11.9	–	–	–	8.47
GCACGGAGUGUAGGAUAUCUGUGCGAUUAGCUCAGAGAAGGACACAUGAGGAUCACCCAUGUGUACCUCAACAUUAAUCCGUGC [Eli exng1 - 075] (Eterna round: R96, puzzle: Exclusion NG 1)	10.1	10.1	–	–	–	6.62
GCACGGAGUGUAGGAUAUUAGUGCGAUUAGCACUGAGAAGGACAUGAGGAUCACCCAUGUUCCUCAAUAAUUAGCCUUCCGUGC [Eli exng1 - 038] (Eterna round: R96, puzzle: Exclusion NG 1)	15.2	15.7	–	–	–	9.61
GCACGGAUGGUAGGAUAUCAUUGCGAUUAGCUAUGAGAAGGGCCACAUGAGGAUCACCCAUGUCCUCUAAUUAGCCUUCCGUGC [Eli exng1 - 018] (Eterna round: R96, puzzle: Exclusion NG 1)	–	–	–	–	–	82.3
GCACUGCGAGGAUAUACAUGAGGAUCACCCAUGUGUCGGCAGCCAUGCCAGUACAAAUGUAGAAGGCGCGUAAA [EX3 #55] (Eterna round: R97, puzzle: Exclusion 3)	88.1	27	–	–	–	–
GCACUGCGAGGAUAUACAUGAGGAUCACCCAUGUGUCGGCAGCCAUGUUAUUUCUAAUGUAGAAGGCGCGUAAA [JR_Ex3_Sub001] (Eterna round: R97, puzzle: Exclusion 3)	125	33	–	–	–	–
GCACUUGAACAUGAGGAUCACCCAUGUGUUUUUCUUGUUCGGCAGGAUAUCGUCUAGCGCCAGGACGAGAAGGGCCAAUAAAAG [Ratiarveed] (Eterna round: R96, puzzle: Exclusion NG 3)	77.8	141	–	–	–	61
GCAGAAUGAGUUAGGAUAUGAUGAUUUUUCGGAUAUCAGAAGGAACUUGAGGAUCACCCAAGUUAAGAUAGGGU [JR_BMEx4_Sub066] (Eterna round: R97, puzzle: Brourd's mod of Exclusion 4)	258	170	–	–	–	–
GCAGCAUAGAUAACAGUCUGAUACAUGAGGAUCACCCAUGUGCAGGAUAUGGUCUGGAUUACAGGCCAGAAGGGUACAAGCUGC [Eli exng3 - 015] (Eterna round: R96, puzzle: Exclusion NG 3)	10.4	13.4	–	–	–	7.84
